T1: SIX1 (human, UniProt Q15475 1-284)
T1 sequence: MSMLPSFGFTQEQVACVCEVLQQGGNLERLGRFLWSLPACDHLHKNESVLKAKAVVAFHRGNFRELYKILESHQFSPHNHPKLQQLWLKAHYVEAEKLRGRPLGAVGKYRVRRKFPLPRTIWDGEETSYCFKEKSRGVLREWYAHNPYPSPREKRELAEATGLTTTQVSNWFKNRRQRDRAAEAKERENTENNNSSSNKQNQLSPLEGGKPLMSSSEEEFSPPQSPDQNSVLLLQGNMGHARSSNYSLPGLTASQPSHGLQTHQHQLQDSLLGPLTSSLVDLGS

B1: WNT5A_promoter_EMSA (dsDNA)
DNA 1: CCCGCCCTAAGTGTCAAATTTCCTCCAGGGGAG
DNA 2: CTCCCCTGGAGGAAATTTGACACTTAGGGCGGG
B2: WNT5A_promoter_EMSAmut (dsDNA)
DNA 1: CCCGCCCTAAGTATCAAATTTCCTCCAGGGGAG
DNA 2: CTCCCCTGGAGGAAATTTGATACTTAGGGCGGG

Assays:
SIX1 [1] = molecular target: T1, SIX1; assay: EMSA; EMSA: Active Motif Gelshift or Thermo LightShift chemiluminescent kit binding buffer, no glycerol, no poly d(I-C), RT 25 min; protein dilutions 1-300 nM; 6% gel in 0.5x TBE; pH and salt not given; conditions: protein: recombinant; tags: N-terminal HA from pGEX-6p1-N-HA (GST removed with PreScission); label: biotin 3' end (both strands, Pierce 3' end-labeling kit); blunt
SIX1 [2] = molecular target: T1, SIX1; assay: EMSA; modest increase in affinity vs N1; EMSA: Active Motif Gelshift or Thermo LightShift chemiluminescent kit binding buffer, no glycerol, no poly d(I-C), RT 25 min; protein dilutions 1-300 nM; 6% gel in 0.5x TBE; pH and salt not given; conditions: protein: recombinant; tags: N-terminal HA from pGEX-6p1-N-HA (GST removed with PreScission); label: biotin 3' end (both strands, Pierce 3' end-labeling kit); blunt

Binder	binding signal (SIX1 [1])	binding result (SIX1 [2])
B1	~0.1 affinity relative to SIX1-Q177R on same probe	
B2		binds
